This note sets out measurements from US20180155451A1 (published 2018).

The chains are these.
B1: GpH7-Kn033/GpH7-Hl033/GpL16-k0 (antibody, human IgG1, kappa)
heavy 1: not shown
heavy 2: not shown
light: DIVMTQSPLSLPVTPGEPASISCQASESLVHSNRNTYLHWYLQKPGQSPQLLIYKVSNRFSGVPDRFSGSGSGTDFTLKISRVEAEDVGVYYCSQNTHVPPTFGQGTKVEIERTVAAPSVFIFPPSDEQLKSGTASVVCLLNNFYPREAKVQWKVDNALQSGNSQESVTEQDSKDSTYSLSSTLTLSKADYEKHKVYACEVTHQGLSSPVTKSFNRGEC
notes: Anti-glypican-3 IgG1 with knobs-into-holes alone; also called Kn033/Hl033
B2: GpH7-Kn032/GpH7-Hl032/GpL16-k0 (antibody, human IgG1, kappa)
heavy 1: QVQLVQSGAEVKKPGASVTVSCKASGYTFTDYEMHWIRQPPGEGLEWIGAIDPKTGDTAYSESFQDRVTLTADKSTSTAYMELSSLTSEDTAVYYCTRFYSYTYWGQGTLVTVSSASTKGPSVFPLAPSSKSTSGGTAALGCLVKDYFPEPVTVSWNSGALTSGVHTFPAVLQSSGLYSLSSVVTVPSSSLGTQTYICNVNHKPSNTKVDKKVEPKSCDKTHTCPPCPAPELLGGPDVFLFPPKPKDTLMISRTPEVTCVVVDVSHEDPEVKFNWYVDGVEVHNAKTKPREEQYNSTYRVVSVLTVLHQDWLNGKEYKCKVSNKALPLPEEKTISKAKGQPREPQVCTLPPSRDELTKNQVSLWCLVKGFYPSDIAVEWESNGQPENNYKTTPPVLDSDGSFFLYSKLTVDKSRWQQGNVFSCSVMHEALHNHYTQKSLSLSP
heavy 2: B2 heavy 1 with C347Y, D354C, W364S, L366A, Y405V
light: B1 light
notes: also called Kn032/Hl032
B3: GpH7-Kn037/GpH7-Hl036/GpL16-k0 (antibody, human IgG1, kappa)
heavy 1: B2 heavy 1 with G234A, L328A
heavy 2: B2 heavy 1 with G234A, L328A, C347Y, D354C, W364S, L366A, Y405V
light: B1 light
notes: also called Kn037/Hl036
B4: GpH7-A5/GpH7-HA11/GpL16-k0 (antibody, human IgG1, kappa)
heavy 1: not shown
heavy 2: B2 heavy 1 with D237S, S296A, P327R, L328A, E330I, C347Y, W364T, K437E
light: B1 light
notes: H2 S298A and P329R
B5: GpH7-A48/GpH7-B3-01-15Y/GpL16-k0 (antibody, human IgG1, kappa)
heavy 1: B2 heavy 1 with D237S, P327R, L328A, E330I, C347Y, D354K, W364T, H433R
heavy 2: not shown
light: B1 light
notes: H1 P329R; H2 L234Y
B6: GpH7-A48/GpH7-B3-15-02A/GpL16-k0 (antibody, human IgG1, kappa)
heavy 1: B2 heavy 1 with D237S, P327R, L328A, E330I, C347Y, D354K, W364T, H433R
heavy 2: not shown
light: B1 light
notes: H1 P329R; H2 S298A
B7: GpH7-A48/GpH7-B3-03-20W/GpL16-k0 (antibody, human IgG1, kappa)
heavy 1: B2 heavy 1 with D237S, P327R, L328A, E330I, C347Y, D354K, W364T, H433R
heavy 2: not shown
light: B1 light
notes: H1 P329R; H2 G236W

Substitutions are numbered along the chain they refer to. In names and notes the source's numbering stands.

T1 sequence (P08637 17-208 F176V): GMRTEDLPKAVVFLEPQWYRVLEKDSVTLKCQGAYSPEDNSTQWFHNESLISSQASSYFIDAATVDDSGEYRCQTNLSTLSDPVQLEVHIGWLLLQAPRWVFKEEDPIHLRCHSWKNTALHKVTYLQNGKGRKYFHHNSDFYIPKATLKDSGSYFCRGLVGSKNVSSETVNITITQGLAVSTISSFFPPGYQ
T4 sequence (P08637 17-208): as the sequence (P08637 17-208 F176V) above, with V160F counted along it

The first assay has as its target T1, FcγRIIIa type V extracellular domain with C-terminal His tag (human, UniProt P08637 17-208).
T1 construct: extracellular domain; also called FcgRIIIa V; FcγRIIIa V
Put plainly: SPR (Biacore T100), antibody captured on antigen-peptide chip, FcγR analyte, 1:1 Langmuir fit. The method, then: (§1) These antibodies were assessed for the binding activity to each FcγR according to the method described in Reference Example 2.
(§2) Analysis of interaction between objective antibody and the FcγR was carried out using Biacore T100 (GE Healthcare). HBS-EP+ (GE Healthcare) was used as the running buffer, and the measurement temperature was set to 25° C. Chips produced by immobilizing the antigen peptide by the amine coupling method to a Series S Sencor Chip CM5 (GE Healthcare), or alternatively, chips produced by allowing preliminarily biotinylated antigen peptides to interact with and immobilize onto a Series S Sensor Chip SA (certified) (GE Healthcare) were used. Antibodies of interest were captured onto an antigen peptide-immobilized chip, and allowed to interact to each FcγR diluted with running buffer. To regenerate and repeatedly use the chip, the antibodies captured on the chip were washed off by reacting 10 mM glycine-HCl, pH 1.5.
(§3) The FcγR-binding activity of each antibody was assessed primarily using as an indicator the FcγR-binding activity and dissociation constant for FcγR.
On the technique in general: SPR reads the build-up and loss of mass on a sensor chip optically.
Usually Kd stands for the free concentration of one partner at which half of the binding sites on the other are occupied at equilibrium, for simple one-to-one binding. A low value points to tighter binding. The molecule B1 yielded a Kd of 220 nM. This lies in the sub-micromolar range.
Molecule B2 showed a Kd of 1.2 nM.
B3 gave a Kd of 2.6 nM.

The target of another assay is T2, FcγRIIa type R extracellular domain with C-terminal His tag (human, UniProt P12318 34-217).
T2 construct: extracellular domain; also called FcgRIIa R; FcγRIIa R
T2 sequence (looked up): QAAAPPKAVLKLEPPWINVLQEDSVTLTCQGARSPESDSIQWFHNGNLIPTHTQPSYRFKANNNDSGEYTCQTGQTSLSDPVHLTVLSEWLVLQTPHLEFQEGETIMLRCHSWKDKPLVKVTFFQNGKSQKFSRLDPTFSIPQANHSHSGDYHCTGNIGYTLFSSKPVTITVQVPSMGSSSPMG
The assay is described as above. The method, then: as §1, §2, §3
In turn, B1 came in with a Kd of 740 nM.
Still for that read-out and setting: the figure for B2 is 250 nM.
The molecule B3 displayed a Kd of 17 nM. Compared with the last molecule, the Kd is about 15-fold lower.

The next assay deals with T3, FcγRIIa type H extracellular domain with C-terminal His tag (human, UniProt P12318 34-217).
T3 construct: extracellular domain; also called FcgRIIa H; FcγRIIa H
T3 sequence (looked up): T2 sequence (looked up) with R134H
The assay is described as above. As to the method: as §1, §2, §3
As for B1, the Kd was found to be 590 nM.
In turn, B2 had a Kd of 470 nM.
B3 had a Kd of 27 nM.

The next assay has as its target T4, FcγRIIIa type F extracellular domain with C-terminal His tag (human, UniProt P08637 17-208).
T4 construct: extracellular domain; also called FcgRIIIa F; FcγRIIIa F
The description is as above. The method, then: as §1, §2, §3
B1 showed a Kd of 1600 nM.
For B2, binding was characterised by a dissociation constant (Kd) of 4.1 nM.
B3 yielded a Kd of 9.7 nM.

The target in a further assay is T5, FcγRIa extracellular domain with C-terminal His tag (human, UniProt P12314 16-292).
T5 construct: extracellular domain; also called FcgRIa; FcgRI
T5 sequence (P12314 16-292): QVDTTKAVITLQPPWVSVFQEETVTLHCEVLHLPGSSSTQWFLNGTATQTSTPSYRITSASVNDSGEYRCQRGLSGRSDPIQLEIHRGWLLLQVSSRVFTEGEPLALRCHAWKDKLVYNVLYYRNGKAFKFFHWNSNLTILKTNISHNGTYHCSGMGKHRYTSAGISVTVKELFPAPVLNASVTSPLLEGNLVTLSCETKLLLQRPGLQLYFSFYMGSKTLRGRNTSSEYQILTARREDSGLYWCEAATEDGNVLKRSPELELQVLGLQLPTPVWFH
Described as above. The method, then:
as §1, §2, §3
For B1, the affinity, expressed as Kd, was 0.069 nM. In other words, the picomolar range.
B2 displayed a Kd of 0.0028 nM. Against the preceding molecule, the Kd is about 25-fold lower.
B3 had a Kd of 0.012 nM.

A further assay concerns the target T6, FcγRIIb extracellular domain with C-terminal His tag (human, UniProt P31994 43-217).
T6 construct: extracellular domain; also called FcgRIIb
T6 sequence (looked up): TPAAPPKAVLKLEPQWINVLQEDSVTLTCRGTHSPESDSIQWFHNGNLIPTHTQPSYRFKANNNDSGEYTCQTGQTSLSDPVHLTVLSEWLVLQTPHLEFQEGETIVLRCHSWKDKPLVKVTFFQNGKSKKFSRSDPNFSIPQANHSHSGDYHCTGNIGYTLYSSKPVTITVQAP
The description is as above. As to the method:
as §1, §2, §3
On to B1, for which binding was characterised by a dissociation constant (Kd) of 3600 nM.
Same read-out and setting: the figure for B2 is 440 nM.
Still for that read-out and setting: the figure for B3 is 230 nM.

Another assay has as its target T1, FcγRIIIa type V extracellular domain …. Put plainly: SPR (Biacore T100), ratio of KD values. As to the method: as §1, §2, §3
On to B1, for which the KD ratio is 1 fold (KD of GpH7-Kn033/GpH7-Hl033/GpL16-k0 divided by KD of this antibody).
B2: the KD ratio was 182 fold (KD of GpH7-Kn033/GpH7-Hl033/GpL16-k0 divided by KD of this antibody).
With B3, the KD ratio is 84 fold (KD of GpH7-Kn033/GpH7-Hl033/GpL16-k0 divided by KD of this antibody).

For another assay, the target named is T2, FcγRIIa type R extracellular domain …. Put plainly: SPR (Biacore T100), ratio of KD values. As to the method:
as §1, §2, §3
In the case of B1, the KD ratio is 1 fold (KD of GpH7-Kn033/GpH7-Hl033/GpL16-k0 divided by KD of this antibody).
Regarding B2, the KD ratio is 3 fold (KD of GpH7-Kn033/GpH7-Hl033/GpL16-k0 divided by KD of this antibody).
Turning to B3, the KD ratio is 43 fold (KD of GpH7-Kn033/GpH7-Hl033/GpL16-k0 divided by KD of this antibody).

For a further assay, the target named is T3, FcγRIIa type H extracellular domain …. Briefly: SPR (Biacore T100), ratio of KD values. As to the method:
as §1, §2, §3
For B1, the KD ratio is 1 fold (KD of GpH7-Kn033/GpH7-Hl033/GpL16-k0 divided by KD of this antibody).
On the same count and under the same terms, next, B2: 1.2 fold (KD of GpH7-Kn033/GpH7-Hl033/GpL16-k0 divided by KD of this antibody); B3: 22 fold (KD of GpH7-Kn033/GpH7-Hl033/GpL16-k0 divided by KD of this antibody).

In another assay the target is T4, FcγRIIIa type F extracellular domain …. Put plainly: SPR (Biacore T100), ratio of KD values. The method, then: as §1, §2, §3
As to B1, the KD ratio is 1 fold (KD of GpH7-Kn033/GpH7-Hl033/GpL16-k0 divided by KD of this antibody).
Consider B2, for which the KD ratio was 381 fold (KD of GpH7-Kn033/GpH7-Hl033/GpL16-k0 divided by KD of this antibody).
Same read-out and setting: next, B3: 161 fold (KD of GpH7-Kn033/GpH7-Hl033/GpL16-k0 divided by KD of this antibody).

A further assay deals with T5, FcγRIa extracellular domain with …. Briefly: SPR (Biacore T100), ratio of KD values. As to the method:
as §1, §2, §3
Take B1: the KD ratio was 1 fold (KD of GpH7-Kn033/GpH7-Hl033/GpL16-k0 divided by KD of this antibody).
As for B2, the KD ratio was 24 fold (KD of GpH7-Kn033/GpH7-Hl033/GpL16-k0 divided by KD of this antibody).
As for B3, the KD ratio was 6 fold (KD of GpH7-Kn033/GpH7-Hl033/GpL16-k0 divided by KD of this antibody).

In the next assay the target is T6, FcγRIIb extracellular domain with …. Put plainly: SPR (Biacore T100), ratio of KD values. The method, then: as §1, §2, §3
As to B1, the KD ratio was 1 fold (KD of GpH7-Kn033/GpH7-Hl033/GpL16-k0 divided by KD of this antibody).
For the molecule B2, the KD ratio was 8.2 fold (KD of GpH7-Kn033/GpH7-Hl033/GpL16-k0 divided by KD of this antibody).
Take B3: the KD ratio was 16 fold (KD of GpH7-Kn033/GpH7-Hl033/GpL16-k0 divided by KD of this antibody).

For the next assay, the target named is T7, FcγRIIIa extracellular domain with C-terminal His tag (human, UniProt P08637 17-208).
T7 construct: extracellular domain; also called FcgRIIIa; 3a; not shown: His tag at the C terminus
T7 sequence (P08637 17-208): as the sequence (P08637 17-208 F176V) above, with V160F counted along it
Briefly: SPR relative binding; GpH7-A5/GpH7-B3/GpL16-k0 = 100.
Text: First, variants of interest were expressed and prepared according to the method described in Reference Example 1, using GpH7-A5 as an H chain; and GpL16-k0 as the L chain; and as the other H chain, GpH7-HA5 (SEQ ID NO: 19), GpH7-HA6 (SEQ ID NO: 20), and GpH7-HA11 (SEQ ID NO: 21) resulting from the introduction of L234Y, G236W, and S298A, respectively, into GpH7-B12 introduced with the alteration P329R. Furthermore, antibodies of interest were expressed and prepared according to the method described in Reference Example 1, using as an H chain, GpH7-A48 (SEQ ID NO: 16) resulting from the introduction of P329R into GpH7-A5; and GpL16-k0 as the L chain; and as the other H chain, GpH7-B3-01-15Y (SEQ ID NO: 22), GpH7-B3-03-20W (SEQ ID NO: 23), and GpH7-B3-15-02A (SEQ ID NO: 24) resulting from the introduction of L234Y, G236W, and S298A, respectively, into GpH7-B3. The antibodies thus obtained were named GpH7-A5/GpH7-HA5/GpL16-k0 (SEQ ID NOs: 3, 19, and 5, respectively), GpH7-A5/GpH7-HA6/GpL16-k0 (SEQ ID NOs: 3, 20, and 5, respectively), GpH7-A5/GpH7-HA11/GpL16-k0 (SEQ ID NOs: 3, 21, and 5, respectively), GpH7-A48/GpH7-B3-01-15Y/GpL16-k0 (SEQ ID NOs: 16, 22, and 5, respectively), GpH7-A48/GpH7-B3-03-20W/GpL16-k0 (SEQ ID NOs: 16, 23, and 5, respectively), and GpH7-A48/GpH7-B3-15-02A/GpL16-k0 (SEQ ID NO: 16, 24, and 5, respectively). The variants were compared to each other for the FcγRIIIa-binding activity according to the method described in Reference Example 2.
as §2
Take B4: the “FcγRIIIa BINDING ACTIVITY” value is 84 % of control.
Regarding B5, the “FcγRIIIa BINDING ACTIVITY” value is 11 % of control.
As for B6, the “FcγRIIIa BINDING ACTIVITY” value is 47 % of control.
Take B7: the “FcγRIIIa BINDING ACTIVITY” value was 13 % of control.
